Measured values reported in patent publication US20080153737A1.

Key:
Experiment in all cases: cell-based or functional assay
[1] = target: HIV env gp160 stably expressed on mouse melanoma B16 cells (gp160-B16) (HIV (strain not stated))
[2] = target: HIV envelope protein (env, gp160/gp120) of HIV strain IIIB on infected cells and virus (HIV strain IIIB) (UniProt P04578)
[3] = target: ErbB2 receptor on SKBR3 breast cancer cells (UniProt P04626)

delivery of FITC-siRNA into cells (flow cytometry) [3] | Substance | uptake of FITC-siRNA by implanted tumor cells after intravenous injection (fluorescence microscopy) [1] | reduction of HIV infection in primary CD4 T cells (p24 Ag ELISA of culture supernatants) [2] | reduction of HIV replication in infected primary CD4 cells (F105-P + irrelevant GFP siRNA condition) [2] | uptake of FITC-CD4 siRNA by an HIV IIIB-infected Jurkat culture, 24 h (flow cytometry) [2] | uptake of FITC-labeled siRNA by HIV-infected Jurkat cells (flow cytometry) (% of infected cells) [2] | reduction of HIV replication in infected primary CD4 cells (F105 + gag siRNA condition) [2]
– | F105-protamine (Fab fragment of human anti-HIV gp120 antibody F105, heavy chain fused at its C-terminus to full-length protamine) (from UniProt P04553 1-51) | 30 % of cells | 30% | 25 to 28% | 21 % of cells | 40 | –
32 % of cells | single chain ErbB2 antibody protamine fusion protein ML39 ScFv-P (from UniProt P04553 8-29) | – | – | – | – | – | –
– | F105 (antibody Fab fragment against HIV envelope, lacking protamine) | – | 30% | – | – | – | 25 to 28%
